According to publication PMC5655499, “Peptide array-based screening reveals a large number of proteins interacting with the ankyrin-repeat domain of the zDHHC17 S-acyltransferase” (The Journal of Biological Chemistry, 2017):

B1: SNAP25 15-mer peptide (wild type) containing the zDABM [not stated] / His6-tagged AR domain (residues 51–288) of zDHHC17 [human] (parent)
chain 1: THIDDYSTWDIVKATQYGIYERCRELVEAGYDVRQPDKENVTLLHWAAINNRIDLVKYYISKGAIVDQLGGDLNSTPLHWATRQGHLSMVVQLMKYGADPSLIDGEGCSCIHLAAQFGHTSIVAYLIAKGQDVDMMDQNGMTPLMWAAYRTHSVDPTRLLLTFNVSVNLGDKYHKNTALHWAVLAGNTTVISLLLEAGANVDAQNIKGESALDLAKQRKNVWMINHLQEARQAKGYDN
chain 2: QDGVVASQPARVVDE
B2: CSPα 15-mer peptide (wild type) containing the zDABM [not stated] / His6-tagged AR domain (residues 51–288) of zDHHC17 [human] (parent)
chain 1: B1 chain 1
chain 2: TDTPIVIQPASATET
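Further: PSSM score: binding signal versus wild type scaled to sum 1 per position.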

Variants of: B1
Assay: far-Western blotting on peptide array
Settings: with His6-tagged AR domain (residues 51–288) of zDHHC17 [human]; ARzD17-His 500 nm in PBS-T, overnight, 4 °C
In the case of chain 2 P9C, the screen value is reported as < 0.005. With chain 2 P9Q the screen value was < 0.005. chain 2 P9F was tested, and the screen value was < 0.005. In the case of chain 2 P9G, the screen value is reported as < 0.005. chain 2 P9R was tested, and the screen value was < 0.005. chain 2 P9H was tested, and the screen value was < 0.005. In the case of chain 2 P9S, the screen value is reported as < 0.005. chain 2 P9V was tested, and the screen value was < 0.005. chain 2 P9N was tested, and the screen value was < 0.005. For chain 2 P9M, the screen value was < 0.005. For chain 2 P9W, the screen value was < 0.005. With chain 2 P9A the screen value was < 0.005. With chain 2 P9Y the screen value was < 0.005. For chain 2 P9D, the screen value was < 0.005. chain 2 P9L was tested, and the screen value was < 0.005. With chain 2 P9K the screen value was < 0.005. In the case of chain 2 P9E, the screen value is reported as < 0.005. In the case of chain 2 P9T, the screen value is reported as < 0.005. For chain 2 Q8F, the screen value was < 0.005. With chain 2 Q8D the screen value was < 0.005. In the case of chain 2 Q8G, the screen value is reported as < 0.005. In the case of chain 2 Q8T, the screen value is reported as < 0.005. In the case of chain 2 Q8A, the screen value is reported as < 0.005. In the case of chain 2 Q8H, the screen value is reported as < 0.005. chain 2 Q8E was tested, and the screen value was < 0.005. In the case of chain 2 Q8N, the screen value is reported as < 0.005. chain 2 Q8V was tested, and the screen value was < 0.005. In the case of chain 2 Q8I, the screen value is reported as < 0.005. For chain 2 Q8P, the screen value was < 0.005. chain 2 Q8Y was tested, and the screen value was < 0.005. For chain 2 Q8W, the screen value was < 0.005. chain 2 Q8S was tested, and the screen value was < 0.005. With chain 2 A10D the screen value was < 0.005. With chain 2 A6G the screen value was < 0.005. In the case of chain 2 A6P, the screen value is reported as < 0.005. chain 2 R11T was tested, and the screen value was < 0.005. For chain 2 R11V, the screen value was < 0.005. With chain 2 R11F the screen value was < 0.005. chain 2 R11E was tested, and the screen value was < 0.005. For chain 2 R11N, the screen value was < 0.005. With chain 2 R11M the screen value was < 0.005. In the case of chain 2 R11D, the screen value is reported as < 0.005. For chain 2 R11L, the screen value was < 0.005. For chain 2 R11I, the screen value was < 0.005. With chain 2 R11Q the screen value was < 0.005. With chain 2 R11Y the screen value was < 0.005. chain 2 V4T was tested, and the screen value was < 0.005. In the case of chain 2 V4N, the screen value is reported as < 0.005. With chain 2 V4Y the screen value was < 0.005. In the case of chain 2 V4G, the screen value is reported as < 0.005. For chain 2 V4M, the screen value was < 0.005. With chain 2 V4F the screen value was < 0.005. chain 2 V4H was tested, and the screen value was < 0.005. With chain 2 V4Q the screen value was < 0.005. With chain 2 V4D the screen value was < 0.005. For chain 2 V4R, the screen value was < 0.005. For chain 2 V4L, the screen value was < 0.005. With chain 2 V4K the screen value was < 0.005. chain 2 V4S was tested, and the screen value was < 0.005. In the case of chain 2 V4A, the screen value is reported as < 0.005. In the case of chain 2 V4E, the screen value is reported as < 0.005. In the case of chain 2 V4W, the screen value is reported as < 0.005. With chain 2 S7G the screen value was < 0.005. With chain 2 S7P the screen value was < 0.005. In the case of chain 2 V5S, the screen value is reported as < 0.005. chain 2 V5H was tested, and the screen value was < 0.005. chain 2 V5K was tested, and the screen value was < 0.005. For chain 2 V5Q, the screen value was < 0.005. With chain 2 V5A the screen value was < 0.005. With chain 2 V5W the screen value was < 0.005. In the case of chain 2 V5P, the screen value is reported as < 0.005. For chain 2 V5L, the screen value was < 0.005. In the case of chain 2 V5D, the screen value is reported as < 0.005. With chain 2 V5M the screen value was < 0.005. chain 2 V5G was tested, and the screen value was < 0.005. chain 2 V5N was tested, and the screen value was < 0.005. In the case of chain 2 V5Y, the screen value is reported as < 0.005. For chain 2 V5E, the screen value was < 0.005. chain 2 V5T was tested, and the screen value was < 0.005. chain 2 V12D was tested, and the screen value was < 0.005. In the case of chain 2 V12E, the screen value is reported as < 0.005.

Variants of: B2
Assay: far-Western blotting on peptide array
Settings: with His6-tagged AR domain (residues 51–288) of zDHHC17 [human]; ARzD17-His 500 nm in PBS-T, overnight, 4 °C
In the case of chain 2 Q8L, the screen value is reported as < 0.005. With chain 2 Q8T the screen value was < 0.005. For chain 2 Q8N, the screen value was < 0.005. In the case of chain 2 Q8E, the screen value is reported as < 0.005. In the case of chain 2 Q8I, the screen value is reported as < 0.005. With chain 2 Q8G the screen value was < 0.005. chain 2 Q8W was tested, and the screen value was < 0.005. chain 2 Q8H was tested, and the screen value was < 0.005. In the case of chain 2 Q8R, the screen value is reported as < 0.005. With chain 2 Q8P the screen value was < 0.005. chain 2 Q8F was tested, and the screen value was < 0.005. For chain 2 Q8K, the screen value was < 0.005. For chain 2 Q8D, the screen value was < 0.005. For chain 2 Q8V, the screen value was < 0.005. With chain 2 Q8Y the screen value was < 0.005. For chain 2 Q8A, the screen value was < 0.005. For chain 2 Q8S, the screen value was < 0.005. In the case of chain 2 I5S, the screen value is reported as < 0.005. With chain 2 I5Q the screen value was < 0.005. In the case of chain 2 I5W, the screen value is reported as < 0.005. In the case of chain 2 I5T, the screen value is reported as < 0.005. For chain 2 I5F, the screen value was < 0.005. With chain 2 I5K the screen value was < 0.005. In the case of chain 2 I5N, the screen value is reported as < 0.005. chain 2 I5Y was tested, and the screen value was < 0.005. In the case of chain 2 I5G, the screen value is reported as < 0.005. For chain 2 I5H, the screen value was < 0.005. With chain 2 I5R the screen value was < 0.005. chain 2 I5P was tested, and the screen value was < 0.005. For chain 2 I5E, the screen value was < 0.005. chain 2 I5M was tested, and the screen value was < 0.005. For chain 2 I5L, the screen value was < 0.005. In the case of chain 2 I5D, the screen value is reported as < 0.005. For chain 2 I5A, the screen value was < 0.005. In the case of chain 2 P9S, the screen value is reported as < 0.005. chain 2 P9G was tested, and the screen value was < 0.005. For chain 2 P9I, the screen value was < 0.005. In the case of chain 2 P9Q, the screen value is reported as < 0.005. In the case of chain 2 P9D, the screen value is reported as < 0.005. chain 2 P9N was tested, and the screen value was < 0.005. With chain 2 P9L the screen value was < 0.005. In the case of chain 2 P9V, the screen value is reported as < 0.005. chain 2 P9R was tested, and the screen value was < 0.005. In the case of chain 2 P9E, the screen value is reported as < 0.005. In the case of chain 2 P9A, the screen value is reported as < 0.005. chain 2 P9K was tested, and the screen value was < 0.005. chain 2 P9T was tested, and the screen value was < 0.005. chain 2 P9F was tested, and the screen value was < 0.005. chain 2 P9M was tested, and the screen value was < 0.005. For chain 2 P9Y, the screen value was < 0.005. For chain 2 P9W, the screen value was < 0.005. In the case of chain 2 P9H, the screen value is reported as < 0.005. With chain 2 P9C the screen value was < 0.005. In the case of chain 2 P4Y, the screen value is reported as < 0.005. For chain 2 P4R, the screen value was < 0.005. With chain 2 P4N the screen value was < 0.005. With chain 2 P4S the screen value was < 0.005. In the case of chain 2 P4L, the screen value is reported as < 0.005. With chain 2 P4M the screen value was < 0.005. With chain 2 P4F the screen value was < 0.005. chain 2 P4D was tested, and the screen value was < 0.005. chain 2 P4K was tested, and the screen value was < 0.005. chain 2 P4Q was tested, and the screen value was < 0.005. In the case of chain 2 I7P, the screen value is reported as < 0.005. In the case of chain 2 V6G, the screen value is reported as < 0.005. In the case of chain 2 V6D, the screen value is reported as < 0.005. With chain 2 V6A the screen value was < 0.005. With chain 2 V6P the screen value was < 0.005. For chain 2 S11E, the screen value was < 0.005. With chain 2 S11D the screen value was < 0.005. chain 2 A10D was tested, and the screen value was < 0.005.
